# Test results: the DeepSol protein solubility set
# Assay: soluble on expression in E. coli; label from the status in PepcDB or PDB records
row,Sequence,soluble on expression in E. coli
1,MAHHHHHHMLRRVTCMAASVGRAAAALSVSPVMAQIPSAMRPPSKASTSAVASLLPPCCQPIYQQRRCYASRSGEEKGNADKGTQAAAAAVSTTPGTATAEAVRYFAANEQNADAAARAQGSVKQQEQLSAAAANGGDAATSGIRTIGIKLTEDDELVRAFNNFSKSVNGCTQEEFLIGAKQAYYSLAVVISAFLEHGQPLAGRTESTKMIAAAHEAAKLLDKEFKPESRCDAAATSLASKAEGDGTDDSSSSSSKTKLQESLVRNVVSTIVSLIPVSRHLAESIFKIWLLHKVKQVNLSSIASPADYVLDSKLVIFARLGKARMYFNSDNVGAEVDVTFSNDYLRKLDPASVAGSGAAGSSQMADAAGKVDEDDFDTGMIQVHTDTDANAHRTTAEEHTFVVNKATRTLTPTGSTAASTAAAAAAASTDAARRSGGNSASAGAGGASAADSAKSSGTASRIQVTCVKTTDFLRKSASAATVAATAVRDEAAAKTAAPNESSGEEEEEAHSVYIKVNGNMLPPIPASAHACALLTVDVVVPPERYAYNFEWFYKRIVGYENEYERIAAARVFASNSPKPLASFLDFFMRMVTGKPVEFMFSKAIGRMIGIPDDVSQTPPATRKLMCMYMDQSYKWVLADLVTLAPVMETKLPKA,not soluble
2,MSFGLVGTVNNNGWKSPFRHETKYRAGYDKFKYYKTHYRGAKKAGTNDDRWRWTAWFDLDFAHQKIVLIERGELHRQADLKKSDPATNETSKTVWGSIKEKLLQNVNNLHSEKGVFLWFRQSGFTTTRN,soluble
3,MGSDKIHHHHHHMKLIINADDFGFTRAINYGIIDAHNLGVLTSTTLMVTMPAFEHAVDLSKKTPTLGIGLHLNLTLGKPLTNGATLVNEDGELIKPKFTTPEYPYNEEEVYQEFKAQYHRFTEFMKKKPSHLDSHLFSTDIYPVVTSAAKRLAEEIGIPLRNHDTKGFEHVEFMWEKPLEIPYGEYDNLDYIYDNAASILCYDYVEIMTHPGYLDTFILENSTFSTPRANELESLISPRMRQFLNENNVELISYHDIPKK,not soluble
4,GPLHMVKVALAGCPNVGKTSLFNALTGTKQYVANWPGVTVEKKEGVFTYKGYTINLIDLPGTYSLGYSSIDEKIARDYLLKGDADLVILVADSVNPEQSLYLLLEILEMEKKVILAMTAIDEAKKTGMKIDRYELQKHLGIPVVFTSSVTGEGLEELKEKIVEYAQKNTILHRMILDYGEKVESEIKKVENFLRDKKLRINPRYFALKYLSGDPEFYSEGVKLGLPELSEEERIGYRLLIAKRKREYVENVVKEAFAD,soluble
5,MNSAPKLNTFQHLIGEHQTFLEAKRIAKQFSLSELPVLITGKIGTGKNHFAHAIHLESSRSNEPFISVNCSTHSEETLIHELFGPNGNTGVFQKAVRGTLFLDDVWRMPASVQAQLLKALDSDTEKPRMICASADRSVEHTFRQDLFYRLNILTLTLPELSERKSDIPLLTQHFLSNSGQQLLIDPSVFPVLEKHAFEGNVRELKNAADYMAAVSSGGTIQPYDLPPYIRGTIDGKTSKKKAKLLTLMEKAEFLFILETIKVLNEKGEPASRRIISEHSKNTQTSLTPQQVRSRLDYLEKKDYVTKSRGRAGTKITFEGLSFIETLKNQMILEHHHHHH,soluble
6,MGSDKIHHHHHHMERKTVLVIADLGGCPPHMFYKSAAEKYNLVSFIPRPFAITASHAALIEKYSVAVIKDKDYFKSLADFEHPDSIYWAHEDHNKPEEEVVEQIVKVAEMFGADAITTNNELFIAPMAKACERLGLRGAGVQAAENARDKNKMRDAFNKAGVKSIKNKRVTTLEDFRAALEEIGTPLILKPTYLASSIGVTLITDTETAEDEFNRVNDYLKSINVPKAVTFEAPFIAEEFLQGEYGDWYQTEGYSDYISIEGIMADGEYFPIAIHDKTPQIGFTETSHITPSILDEEAKKKIVEAAKKANEGLGLQNCATHTEIKLMKNREPGLIESAARFAGWNMIPNIKKVFGLDMAQLLLDVLCFGKDADLPDGLLDQEPYYVADCHLYPQHFKQNGQIPETAEDLVIEAIDIPDGLLKGDTEIVSFSAATPGTSVDLTLFEAFNSIAAFELKGSNSQDVAESIRQIQQHAKLTAKYVLPV,not soluble
7,MSLDKLQRISEAIKSKKKLVVMFSGGVDSTLLAKLAREVLGKNAVALTIDSPVIPRKEIEEAKNLANLIGIRHEFIELNELKSRHLIENPPDRCYLCRKLRDNIVKNWARENGFDVIADGLNFSDLQDYRPGVKASTEDGIWHPFIDFEVTKEEIREYSKKLGLPTWDKPAMACLCSRFPYGFGLNEERVRMVEKAENFLRELGFREVRVRFFPYKTAVVEVGRDEMELLMGKRTDIVLALQKIGFSFVTLDLEGFASGKLNRTIEGMSKEGGSHHHHHH,soluble
8,MGSDKIHHHHHHMERPILGKYIIKGKIILETGLRIGGQELGVNIGGIDNPVIRNPLTGEPYIPGSSVKGKMRSLMERLLNLDISGNKVRRHECEERECKVCRVFGSTSKEGNNIPSRLLVRDAFLTEDSKTKLLSMETDLPYTEWKTENALDRVTCKADPRSFERIPAGAEFEFEIIYTAENEKHIKEDLENIATALELLEDDYLGGNGSRGYGKVKFSIEKVIFKSADYYKGEGTPVEKEVKGGVEGFKKAIPEIVKG,not soluble
9,MGSDKIHHHHHHMDILTGKCSDRFMAHVLKRRDQEAVRWYVLTLPTAGGGRDRISPSKGLDAELSRRERRGEALFEYFSPSYVEARKVGGKMVNTRQPLLYNYVFVHASEDEIFRLKRTLPLYNFLPRVSSGGRSYFPYLSDREMDTLRWVAASYSNELPVYVPDSGRLLKGDRVRITSGPFTDMEAEVVVQPGGGHKDVMVRILDCLWVPLFEVRAGEYELIELNTGGKHVYTHLDNDRLSEGLHDALGRYHASGVVVDEDACLAREVLRGYASLRAETDVIRCKLYSLLLPAYLLLGESDEFDRLRSTMRSMLPVIKAGQSRALLLVTLYGCTDSSLYQRMAHELVDPWQEEASPKKSKTVLIRRLRDYDRWLKHNE,not soluble
10,MGSDKIHHHHHHMIGYGKTVRDIRTSKGIHQKDLYDNIISKSFAIEFEKGKHDITLSLFEKILKRMNMDLDEFFYIHRELSKSAEKNYLCMNQERGNIYDLESLELLYSELSKHDGELVEVWKAFVRSRIKMVEHLLKYHEFTVDVITAKDKCTIQKYLFSIDTWTLEELKICANSIYFFEEDLQIQFLNQVIKAIQPYKNYDRARRVLCTLLINTIEVFISRSQLSSASKLLILLDSLCIYNESAFYRNISNFLKGLLKMQSNQIKEGYAQAKKAIQLMNDLHFEEIAYLYEILLDQFIQLEGIDILNY,not soluble
11,MNICMRNGYEQFSLTSPGTSDLEIGGSFWKDEPDTKYLCLDSPVEQRQHQPPMAVCAGCRLEISDRYFLRVNPNLEFHAQCLKCVQCSRPLDENQTAFVKNGQTYCRDDYRRLFTTRCSRCHGDFDKTDLVMRAGPQNVFHLNCFACVACEKRLQTGEEFQIKNNSLYCRSDCRGLDNPDTSASVPDYSKLNNNNNNDNNNSSSNFDEDEWDEERSTLTSLDNNTSSPLGSPKSDGVRTPLFGHHNSGSGGSTSSCGKKKKDKQATRVRTVLNENQLKILRDCYSINSRPDATLKERLVEMTGLSARVIRVWFQNKRCKDKKRQIQITENRLNSEREEVLNRVRVNGIGPLMVQPATPHIDNTLGGPIDIQHFAQWNGTPPPPPPQYGNPMMFNSPSTFDVSVILAPVAPNVTSPSEALGPLGASVFPHFSPQHAPFTATSHDISSPAPCGE,not soluble
12,MGSDKIHHHHHHMITYQEQWQKMQMALAIRRIPQAMLFSGSLHCGLIEFTNQVIKLLLCKIKQNEPCLTCMDCQMIERFEHPDVEWIKPERSGGIIKIDQIRGLQSTAFLTPQRTNHKLIIIESAESMNIAASNALLKILEEPAQHTIFILLAQQIGNIPPTVLSRCQITQFAVFDELPCNNLLALGEYYTQELNSTMVFKHSESILEGLIAIIERREHPCTLAAQWIQHELSAFLWFLYLIYSQLQYMHLFRVAYSGTLTKQLNKLSSLLNPVMIFAQVDKINTLLRKLSHNMNINHTLVLEDLLFSLVVDY,not soluble
13,MHSQFGKHKSDISLLTPAPPSPKAFGLLYAAHWLGSTDPEIWERLETLANENQCLIDLRDEKVPGTYETQLFVIGYAGNIVTVLKQLQDYIDEPNNFDRFDIDRRPRKETLKMCVPTDMFLSKFGVGLVAEGRITHYEQNRGVTIKTYAISQSQHVISVYSNENNHQLPLHDLVEYFAYPSQCYEKSFAQKIPYLVDNKSGLLNRFKDISKLDVIKTPRDQLWLMALDGMKTVDARESILQALRENPDSASLYVRACKLEHLPSCKMEWLLHALQRDTLDDKMKIIKHAETYFRGPAILQILESAVLSLSNDIHIVRELAIAHEKSGNFEKSMQFLKDCIDNNSWNSTELTASMIHCEHAGANRTSKVYLEAMYSIFNFTTSEEAALIEIVKVLVETDSPLSAKSLSLELMTRYAGTPTFEKTRQLFHSLFYTTCSKSDSERYDDTFIKHMAKWNKKQQEQQK,not soluble
14,MKAARQQAIVDLLLNHTSLTTEALSEQLKVSKETIRRDLNELQTQGKILRNHGRAKYIHRQNQDSGDPFHIRLKSHYAHKADIAREALAWIEEGMVIALDASSTCWYLARQLPDINIQVFTNSHPICHELGKRERIQLISSGGTLERKYGCYVNPSLISQLKSLEIDLFIFSCEGIDSSGALWDSNAINADYKSMLLKRAAQSLLLIDKSKFNRSGEARIGHLDEVTHIISDERQVATSLVTA,soluble
15,LWALGNDSVTAKSLTISNFTLTERKTRYELCFLLDAKNSNTVNEPLSELKNCYGKDVSNVFRTITADNGSEFSRLSEMLQGLGIEAYFTHPYSSWERGTNERHNGLIRRFIPKGKAIKDFSEETIKRIQQWLNSLPRRILGYKTPEECFNEEIHNLVNKNISAIA,not soluble
16,MSLKINIKDDAQAYLADKIPAGSQVILTTDDGSNKYSSLGGSCAIGNKFQLVILKAADPDYTTPLENNAGYVMHVAPADEAYLGNGLNISRWHNALALKDDSGMLDGALAVVDWRDVSPETEAERREKMQTIGTKICEGHHHHHH,soluble
17,MSLRETLKTIAETLNVTHTTVSNVFNRPEKVSPELREKILAYAESINYHGPAGAGRFLRTGKCGTLGVIFNDNLSYVFSDRHDIALMRGIAEECEKNGINIALMPLKTNNALKKRMMGALVDGYILNATYNNDEVVQAALTSGLPVITTDIKLQNFTCVSIDDGAAMQAICHHLLAAGHKKFGIVSFPVKRLPGELTSLAEFSTDYDNGVAFGRISACITALSDAGIDLHTSYVAEQPHSETGGEKAAKALLAKEPGISAIICLSDRFAFGVYQFCQDHNIPVPGQIAITGFDDIDIQDPPVGLTTIRQPTVLKGREAARALISGQLDNDISLDFELVVRDSAEGHHHHHH,soluble
18,MSLKLVENLALKYYDKVVDLRHQIHMHPELEFEEENTAHLVCKILDEFGIKYQKNIAKTGILAIIEGKKKSQKKPKCVLLRADMDALPVQEKTNLSYASKIDGKMHACGHDGHTAGLLGAALILNELKDEFCGTIKFMFQPAEEGSGGAKPMIESGVLENPYVDAVFGCHLWGPLLENTAQIVSGEMMAGTDIFDLEFIGRGGHGAHPHTCIDPIIMTTQFVNNIQSVISRRLAPYEAGVITVGQICAGTTYNVIPTNAYLKGTVRFLNDKTQDILKSSLEEVAAATAKSNGGDYKLKYTKEFPPLINDEKAVLIARKAFAKVLGEENIIVSSKPDMGAEDFAFLTRERMGAYVFVGISKDLNHPALHHSSTFCWDDENLKVLMQGDVMMALEFLNEGGSHHHHHH,soluble
